The values below come from PMC3367090.

One may read the stoichiometry N as a count of units in the complex or per binding partner.

This assay concerns the target IpaD^Δ192-267 (IpaD distal domain deletion mutant) (S. flexneri) (UniProt P18013).

Regarding “IpaD^Δ192-267 (IpaD distal domain deletion mutant) (from UniProt P18013 15-332) (natural protein)”, the stoichiometry N was 5.
